Test results as given in patent publication US20250215104A1.

What was measured:
[1] = biological target: T1, human suPAR (hsuPAR) recombinant protein (human), Q03405; test: BLI, with WAb0014 against without; conditions: remark: other sources report otherwise
[2] = biological target: T1, human suPAR (hsuPAR) recombinant …; test: BLI (Octet Red96E), hsuPAR 2 µg/mL on streptavidin sensor, vitronectin as analyte
[3] = biological target: T1, human suPAR (hsuPAR) recombinant …; test: BLI (Octet Red96E), WAb0014 on AHC sensor, hsuPAR captured, vitronectin as analyte (in the presence of WAb0014)

T1 sequence (Q03405 23-303): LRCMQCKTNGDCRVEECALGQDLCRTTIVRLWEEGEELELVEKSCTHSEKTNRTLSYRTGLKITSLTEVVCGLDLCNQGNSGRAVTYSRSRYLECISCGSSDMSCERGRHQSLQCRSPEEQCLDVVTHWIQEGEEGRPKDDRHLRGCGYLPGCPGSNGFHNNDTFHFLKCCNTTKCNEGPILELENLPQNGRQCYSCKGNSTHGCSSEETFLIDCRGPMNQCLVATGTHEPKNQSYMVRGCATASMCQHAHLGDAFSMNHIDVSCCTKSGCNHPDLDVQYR

B1: vitronectin, P04004 20-478 (ligand)
chain: DQESCKGRCTEGFNVDKKCQCDELCSYYQSCCTDYTAECKPQVTRGDVFTMPEDEYTVYDDGEEKNNATVHEQVGGPSLTSDLQAQSKGNPEQTPVLKPEEEAPAPEVGASKPEGIDSRPETLHPGRPQPPAEEELCSGKPFDAFTDLKNGSLFAFRGQYCYELDEKAVRPGYPKLIRDVWGIEGPIDAAFTRINCQGKTYLFKGSQYWRFEDGVLDPDYPRNISDGFDGIPDNVDAALALPAHSYSGRERVYFFKGKQYWEYQFQHQPSQEECEGSSLSAVFEHFAMMQRDSWEDIFELLFWGRTSAGTRQPQFISRDWHGVPGQVDAAMAGRIYISGMAPRPSLAKKQRFRHRNRKGYRSQRGHSRGRNQNSRRPSRATWLSLFSSEESNLGANNYDDYRMDWLVPATCEPIQSVFFFSGDKYYRVNLRTRRVDTVDPPYPRSIAQYWLGCPAPGHL
fold reduction in affinity in the presence of WAb0014 [1]: 5 fold
Kd [2]: 13.5 nM
Kd [3]: 62.2 nM
